Two molecules from PMC10474468 can be followed below.

The target of series [1] is Trichomonas vaginalis riboside hydrolase (TvRH), His6 tag removed (Trichomonas vaginalis) (UniProt A2FTT0). Briefly: SEC. (In general: In gel filtration, larger molecules generally elute earlier.)
Substrate in series [2]: NC(=O)c1ccc[n+]([C@@H]2O[C@H](CO)[C@@H](O)[C@H]2O)c1
Briefly: purified protein. As to conditions: Ca2+ active site (modeled only); pH 6.5; 37.0 °C.

Substrate in series [3]: O=c1ccn([C@@H]2O[C@H](CO)[C@@H](O)[C@H]2O)c(=O)[nH]1
As to the kind of experiment: purified protein. As to conditions: Ca2+ active site (modeled only).

Substrate in series [4]: O=c1[nH]c(=O)n([C@@H]2O[C@H](CO)[C@@H](O)[C@H]2O)cc1Cl
Briefly: purified protein. Conditions: Ca2+.

Substrate in series [5]: O=c1[nH]c(=O)n([C@@H]2O[C@H](CO)[C@@H](O)[C@H]2O)cc1F
Briefly: purified protein. Conditions: Ca2+.

Substrate in series [6]: Nc1ccn([C@@H]2O[C@H](CO)[C@@H](O)[C@H]2O)c(=O)n1
Briefly: purified protein. As to conditions: Ca2+.

Substrate in series [7]: O=c1[nH]c(=O)n([C@@H]2O[C@H](CO)[C@@H](O)[C@H]2O)cc1Br
Briefly: purified protein. As to conditions: Ca2+.

Substrate in series [8]: O=[N+]([O-])c1ccc(O[C@@H]2O[C@H](CO)[C@@H](O)[C@H]2O)cc1
Briefly: purified protein. As to conditions: Ca2+.

One may read the stoichiometry N as a count of units in the complex or per binding partner. For the molecule “Trichomonas vaginalis riboside hydrolase (TvRH), His6 tag removed (from UniProt A2FTT0 1-347) (enzyme)”, the stoichiometry N in series [1] was 4.

B1: TvRH (riboside hydrolase, TVAG_092730) (Trichomonas vaginalis G3) (protein)
chain: MSIKCALDCDPGHDDLAMIMLAVYSPKLDVQYISTTHGNQTVNKTYQNARRTLNLIKRADKIPVYRGYSKPLTRESVACPEIHGESGLGGVDWSEIDRTMPRNPALDILGYKDESELRPDDFFKHLHRLVSAAEDKFDIISTGSETNIAQYLLAYPEDAKKIRMTTMAGNFMIVGNIMPFAEFNVLIDPEAISNILQSGVDYTFAAPLDITHTVLVTEKVINDIKAATEPYSPKFTEMIIKLLFFFKDTYRDVFGFIDPPLHDPVAAFHLIAPEWFEHVRCHVDIETKGEYTYGCCCTNLILKKKDPTKIVKPDNATVCLKLKEGGHDAFWNQMITVWGEIAKEIGK
As a reminder, the Km is the concentration of substrate that gives half-maximal velocity. In general, kcat refers to the maximal rate divided by the concentration of active sites. By kcat/Km is commonly meant the turnover number divided by the Michaelis constant. Turning to B1, the Km in series [2] amounted to 99.1 µM; in series [3], 39 µM; in series [4], 11 µM; in series [5], 17 µM; in series [6], 33 µM; in series [7] it was 20 µM. Further, the Michaelis constant (Km) in series [8] is 13 µM. In addition, the kcat in series [2] amounted to 10.9 ± 0.24 s⁻¹; in series [3] it was 9.3 ± 0.27 s⁻¹; in series [4], 2.3 ± 0.1 s⁻¹; in series [5] it was 12.6 ± 0.6 s⁻¹; in series [6], 0.19 ± 0.003 s⁻¹; in series [7], 2.1 ± 0.1 s⁻¹. Further, in series [8], the catalytic constant (kcat) was found to be 391 ± 2 s⁻¹. In addition, the kcat/Km in series [2] came out at 110000 M⁻¹ s⁻¹; in series [3] it was 240000 M⁻¹ s⁻¹; in series [4] it was 210000 M⁻¹ s⁻¹; in series [5], 770000 M⁻¹ s⁻¹; in series [6], 5700 M⁻¹ s⁻¹; in series [7], 100000 M⁻¹ s⁻¹. Further, the kcat/Km in series [8] is 3e+07 M⁻¹ s⁻¹.
